Article PMC10272179, “Structural insight into the human SID1 transmembrane family member 2 reveals its lipid hydrolytic activity” (Nature Communications, 2023)

Key:
[1] = substrate: CCCCCCCCCCCCC/C=C/[C@@H](O)[C@H](CO)NC(=O)CCCCCCCCCCCCCCCCC; test: LC-MS quantification of sphingosine, Michaelis-Menten fit; type: biochemical, Homo sapiens; settings: 0.3 μM enzyme, 25 mM Tris pH 8.0, 150 mM NaCl, 0.02% DDM, 0.002% CHS micelles, room temperature, 30 min
[2] = molecular target: the molecule itself; test: cryo-EM structure; purified SIDT2 in GDN micelles; three samples: pH 7.4 (HEPES, 150 mM NaCl), pH 5.5 (MES) and pH 5.5 plus miRNA2911 (RNA:protein 5:1); refinement with C2 symmetry; no conformational change between the three

Protein | Km [1] [µM] | kcat [1] [s⁻¹] | stoichiometry N [2]
human SIDT2 (SID1 transmembrane family member 2) (Homo sapiens) (protein, full-length (832 residues, with signal peptide), C-terminal FLAG and His8 tags, expressed in HEK293F, purified in GDN; homodimer) HLGVLGPKNVSQKDAEFERTYVDEVNSELVNIYTFNHTVTRNRTEGVRVSVNVLNKQKGAPLLFVVRQKEAVVSFQVPLILRGMFQRKYLYQKVERTLCQPPTKNESEIQFFYVDVSTLSPVNTTYQLRVSRMDDFVLRTGEQFSFNTTAAQPQYFKYEFPEGVDSVIVKVTSNKAFPCSVISIQDVLCPVYDLDNNVAFIGMYQTMTKKAAITVQRKDFPSNSFYVVVVVKTEDQACGGSLPFYPFAEDEPVDQGHRQKTLSVLVSQAVTSEAYVSGMLFCLGIFLSFYLLTVLLACWENWRQKKKTLLVAIDRACPESGHPRVLADSFPGSSPYEGYNYGSFENVSGSTDGLVDSAGTGDLSYGYQGRSFEPVGTRPRVDSMSSVEEDDYDTLTDIDSDKNVIRTKQYLYVADLARKDKRVLRKKYQIYFWNIATIAVFYALPVVQLVITYQTVVNVTGNQDICYYNFLCAHPLGNLSAFNNILSNLGYILLGLLFLLIILQREINHNRALLRNDLCALECGIPKHFGLFYAMGTALMMEGLLSACYHVCPNYTNFQFDTSFMYMIAGLCMLKLYQKRHPDINASAYSAYACLAIVIFFSVLGVVFGKGNTAFWIVFSIIHIIATLLLSTQLYYMGRWKLDSGIFRRILHVLYTDCIRQCSGPLYVDRMVLLVMGNVINWSLAAYGLIMRPNDFASYLLAIGICNLLLYFAFYIIMKLRSGERIKLIPLLCIVCTSVVWGFALFFFFQGLSTWQKTPAESREHNRDCILLDFFDDHDIWHFLSSIAMFGSFLVLLTLDDDLDTVQRDKIYVF | 9.0 | 0.00012 | –
human SID1 transmembrane family member 2 (SIDT2), full-length (natural protein, UniProt Q8NBJ9 19-832, looked up, N-linked glycans resolved at N27, N54, N60, N123, N141 and N165, SIDT2, human, full-length cDNA; 832-amino acid protein with a signal peptide, BRD1 (23-152), BRD2 (157-287), CTD between TM1 and TM2, and eleven TMs; Expressed from the full-length cDNA with its own signal peptide; also called apoSIDT2-pH 7.4; apoSIDT2-pH 5.5) HLGVLGPKNVSQKDAEFERTYVDEVNSELVNIYTFNHTVTRNRTEGVRVSVNVLNKQKGAPLLFVVRQKEAVVSFQVPLILRGMFQRKYLYQKVERTLCQPPTKNESEIQFFYVDVSTLSPVNTTYQLRVSRMDDFVLRTGEQFSFNTTAAQPQYFKYEFPEGVDSVIVKVTSNKAFPCSVISIQDVLCPVYDLDNNVAFIGMYQTMTKKAAITVQRKDFPSNSFYVVVVVKTEDQACGGSLPFYPFAEDEPVDQGHRQKTLSVLVSQAVTSEAYVSGMLFCLGIFLSFYLLTVLLACWENWRQKKKTLLVAIDRACPESGHPRVLADSFPGSSPYEGYNYGSFENVSGSTDGLVDSAGTGDLSYGYQGRSFEPVGTRPRVDSMSSVEEDDYDTLTDIDSDKNVIRTKQYLYVADLARKDKRVLRKKYQIYFWNIATIAVFYALPVVQLVITYQTVVNVTGNQDICYYNFLCAHPLGNLSAFNNILSNLGYILLGLLFLLIILQREINHNRALLRNDLCALECGIPKHFGLFYAMGTALMMEGLLSACYHVCPNYTNFQFDTSFMYMIAGLCMLKLYQKRHPDINASAYSAYACLAIVIFFSVLGVVFGKGNTAFWIVFSIIHIIATLLLSTQLYYMGRWKLDSGIFRRILHVLYTDCIRQCSGPLYVDRMVLLVMGNVINWSLAAYGLIMRPNDFASYLLAIGICNLLLYFAFYIIMKLRSGERIKLIPLLCIVCTSVVWGFALFFFFQGLSTWQKTPAESREHNRDCILLDFFDDHDIWHFLSSIAMFGSFLVLLTLDDDLDTVQRDKIYVF | – | – | 2
